Sequences and labels used below:
B1: CPEB3 Ribozyme (parent)
chain: GGGGGCCACAGCAGAAGCGUUCACGUCGCGGCCCCUGUCAGAUUCUGGUGAAUCUGCGAAUUCUGCUGU

This note sets out measurements from the RNAGym collection of RNA variant scans (doi:10.7554/elife.80360).

In this series the parent is B1. Nature of the series: self-cleavage, relative activity (ratio to wild type); higher = more cleavage; co-transcriptional.
Turning to GGGGGCCACAGCAGAAGCGUUCACGUCGCGGCCCCUGUCAGAUUCUGCUGAAUCUACGAAUUCUGCUGU [G48C G56A], the self-cleavage is 0.988.

Regarding GGGGGCCACAGCAGAAGCGUUCACGUCGCGGCCCCUGUCAGAUUCUGCUCAAUCUGCGAAUUCUGCUGU [G48C G50C], the self-cleavage was found to be 0.944.

Regarding GGGGGCCACAGCAGAAGCGUUCACGUCGCGGCCCCUGUCAGAUUCUGCUUAAUCUGCGAAUUCUGCUGU [G48C G50U], the self-cleavage is 1.01.

As to GGGGGCCACAGCAGAAGCGUUCACGUCGCGGCCCCUGUCAGAUUCUGCUAAAUCUGCGAAUUCUGCUGU [G48C G50A], the self-cleavage was found to be 1.01.

In the case of GGGGGCCACAGCAGAAGCGUUCACGUCGCGGCCCCUGUCAGAUUCUGUGGAAUCUGCGAAUUCUGCUGU [G48U U49G], the self-cleavage came to 1.01.

With GGGGGCCACAGCAGAAGCGUUCACGUCGCGGCCCCUGUCAGAUUCUGUAGAAUCUGCGAAUUCUGCUGU [G48U U49A], the self-cleavage worked out at 1.02.

Turning to GGGGGCCACAGCAGAAGCGUUCACGUCGCGGCCCCUGUCAGAUUCUGUCGAAUCUGCGAAUUCUGCUGU [G48U U49C], the self-cleavage came to 0.981.

As for GGGGGCCACAGCAGAAGCGUUCACGUCGCGGCCCCUGUCAGAUUCUGUUGAAUGUGCGAAUUCUGCUGU [G48U C54G], the self-cleavage turned out to be 1.03.

For GGGGGCCACAGCAGAAGCGUUCACGUCGCGGCCCCUGUCAGAUUCUGCUGAAUCUGCGAAUUCUGCUGC [G48C U69C], the self-cleavage amounted to 1.06.

GGGGGCCACAGCAGAAGCGUUCACGUCGCGGCCCCUGUCAGAUUCUGCUGAAUCUGGGAAUUCUGCUGU [G48C C57G]: the self-cleavage is 0.285.

As for GGGGGCCACAGCAGAAGCGUUCACGUCGCGGCCCCUGUCAGAUUCUGCUGAAUCUGAGAAUUCUGCUGU [G48C C57A], the self-cleavage turned out to be 0.309.

Regarding GGGGGCCACAGCAGAAGCGUUCACGUCGCGGCCCCUGUCAGAUUCUGUUGAAUCUGCGAAUUCUGUUGU [G48U C66U], the self-cleavage was determined as 0.978.

Regarding GGGGGCCACAGCAGAAGCGUUCACGUCGCGGCCCCUGUCAGAUUCUGUUGAAUCUGCGAAUUCUGAUGU [G48U C66A], the self-cleavage was found to be 0.923.

For GGGGGCCACAGCAGAAGCGUUCACGUCGCGGCCCCUGUCAGAUUCUGAUGAAUCUGCGAAUUCUGCUGC [G48A U69C], the self-cleavage was found to be 1.06.

In the case of GGGGGCCACAGCAGAAGCGUUCACGUCGCGGCCCCUGUCAGAUUCUGAUGAAUCUGCGAAUUCUGCUGA [G48A U69A], the self-cleavage worked out at 1.02.

GGGGGCCACAGCAGAAGCGUUCACGUCGCGGCCCCUGUCAGAUUCUGCUGAAUCUGCGAAUGCUGCUGU [G48C U62G]: the self-cleavage worked out at 0.913.

Consider GGGGGCCACAGCAGAAGCGUUCACGUCGCGGCCCCUGUCAGAUUCUGUUGAAUCUGCGUAUUCUGCUGU [G48U A59U], for which the self-cleavage stood at 0.881.

Consider GGGGGCCACAGCAGAAGCGUUCACGUCGCGGCCCCUGUCAGAUUCUGUUGAAUCUGCGCAUUCUGCUGU [G48U A59C], for which the self-cleavage worked out at 0.739.

For GGGGGCCACAGCAGAAGCGUUCACGUCGCGGCCCCUGUCAGAUUCUGUUGAAUCUGCGAAUUCUGCUAU [G48U G68A], the self-cleavage stood at 1.04.

Turning to GGGGGCCACAGCAGAAGCGUUCACGUCGCGGCCCCUGUCAGAUUCUGUUGAAUCUGCGAAUUCUGCUUU [G48U G68U], the self-cleavage amounted to 1.04.

In the case of GGGGGCCACAGCAGAAGCGUUCACGUCGCGGCCCCUGUCAGAUUCUGUUGAAUCUGCGAAUUCUGCUCU [G48U G68C], the self-cleavage was 1.05.

For GGGGGCCACAGCAGAAGCGUUCACGUCGCGGCCCCUGUCAGAUUCUGUUGAAUCUGCGAGUUCUGCUGU [G48U A60G], the self-cleavage was 0.979.

As to GGGGGCCACAGCAGAAGCGUUCACGUCGCGGCCCCUGUCAGAUUCUGUUGAAUCUGCGACUUCUGCUGU [G48U A60C], the self-cleavage turned out to be 0.362.

For the variant GGGGGCCACAGCAGAAGCGUUCACGUCGCGGCCCCUGUCAGAUUCUGUUGAAUCUCCGAAUUCUGCUGU [G48U G56C], the self-cleavage turned out to be 0.865.

As to GGGGGCCACAGCAGAAGCGUUCACGUCGCGGCCCCUGUCAGAUUCUGUUGAAUCUUCGAAUUCUGCUGU [G48U G56U], the self-cleavage was 0.994.

In the case of GGGGGCCACAGCAGAAGCGUUCACGUCGCGGCCCCUGUCAGAUUCUGUUGAAUCUACGAAUUCUGCUGU [G48U G56A], the self-cleavage was found to be 0.945.

With GGGGGCCACAGCAGAAGCGUUCACGUCGCGGCCCCUGUCAGAUUCUGUUCAAUCUGCGAAUUCUGCUGU [G48U G50C], the self-cleavage stood at 1.01.

As to GGGGGCCACAGCAGAAGCGUUCACGUCGCGGCCCCUGUCAGAUUCUGUUAAAUCUGCGAAUUCUGCUGU [G48U G50A], the self-cleavage is 1.03.

Turning to GGGGGCCACAGCAGAAGCGUUCACGUCGCGGCCCCUGUCAGAUUCUGUUUAAUCUGCGAAUUCUGCUGU [G48U G50U], the self-cleavage turned out to be 0.99.

For the variant GGGGGCCACAGCAGAAGCGUUCACGUCGCGGCCCCUGUCAGAUUCUGCUGAAUCUGCGGAUUCUGCUGU [G48C A59G], the self-cleavage came out at 0.989.

As for GGGGGCCACAGCAGAAGCGUUCACGUCGCGGCCCCUGUCAGAUUCUGCUGAAUCUGCGCAUUCUGCUGU [G48C A59C], the self-cleavage came out at 0.797.

As for GGGGGCCACAGCAGAAGCGUUCACGUCGCGGCCCCUGUCAGAUUCUGCUGAAUCUGCGAAUUCUGAUGU [G48C C66A], the self-cleavage came to 0.91.

Take GGGGGCCACAGCAGAAGCGUUCACGUCGCGGCCCCUGUCAGAUUCUGCUGAAUCUGCGAAUUCUGGUGU [G48C C66G]: the self-cleavage turned out to be 0.934.

In the case of GGGGGCCACAGCAGAAGCGUUCACGUCGCGGCCCCUGUCAGAUUCUGCUGAAUUUGCGAAUUCUGCUGU [G48C C54U], the self-cleavage was 1.04.

For GGGGGCCACAGCAGAAGCGUUCACGUCGCGGCCCCUGUCAGAUUCUGUUGAAUCUGCUAAUUCUGCUGU [G48U G58U], the self-cleavage amounted to 0.999.

Turning to GGGGGCCACAGCAGAAGCGUUCACGUCGCGGCCCCUGUCAGAUUCUGUUGAAUCUGCAAAUUCUGCUGU [G48U G58A], the self-cleavage turned out to be 0.963.

Turning to GGGGGCCACAGCAGAAGCGUUCACGUCGCGGCCCCUGUCAGAUUCUGUUGACUCUGCGAAUUCUGCUGU [G48U A52C], the self-cleavage was found to be 0.987.

On to GGGGGCCACAGCAGAAGCGUUCACGUCGCGGCCCCUGUCAGAUUCUGUUGAUUCUGCGAAUUCUGCUGU [G48U A52U], for which the self-cleavage amounted to 0.969.

For GGGGGCCACAGCAGAAGCGUUCACGUCGCGGCCCCUGUCAGAUUCUGUUGAGUCUGCGAAUUCUGCUGU [G48U A52G], the self-cleavage turned out to be 0.983.
